In article PMC5707411 (2017):

Tests used:
[1] = target: prefusion-stabilized RSV F strain A2 (DS-Cav1); assay: SPR
[2] = target: prefusion-stabilized RSV F strain A2 (DS-Cav1); assay: SPR; remark: listed apart in the source

B1: 5C4 Fab (Fab, V domains shown)
VH: EVQLQQSGAELVKPGASVKLSCTASGFNIKDTFFHWVKQRPEQGLEWIGRIDPADGHTKYDPKFQGKATITADTSSNTAFLQLSSLTSVDTAVYYCATTITAVVPTPYNAMDYWGQGTSVTVSS
VL: DIVLTQSPASLAVSLGQRTTISCRASESVDSFDNSFIHWYQQKPGQPPKLLIFLASSLESGVPARFSGSGSRTDFTLTIDPVEADDAATYYCQQSNEDPFTFGSGTKLEIK
Binder B1 has a koff [1] of 0.00454 s⁻¹ and a Kd [2] of 25.7 nM.
